From patent US20250262210A1 (TRUSTEES OF COLUMBIA UNIVERSITY IN THE CITY OF NEW YORK, published 2025)

Molecular target: T1, SBNO2 (human, UniProt Q9Y2G9 1-1366, limits assumed)
T1 sequence (looked up): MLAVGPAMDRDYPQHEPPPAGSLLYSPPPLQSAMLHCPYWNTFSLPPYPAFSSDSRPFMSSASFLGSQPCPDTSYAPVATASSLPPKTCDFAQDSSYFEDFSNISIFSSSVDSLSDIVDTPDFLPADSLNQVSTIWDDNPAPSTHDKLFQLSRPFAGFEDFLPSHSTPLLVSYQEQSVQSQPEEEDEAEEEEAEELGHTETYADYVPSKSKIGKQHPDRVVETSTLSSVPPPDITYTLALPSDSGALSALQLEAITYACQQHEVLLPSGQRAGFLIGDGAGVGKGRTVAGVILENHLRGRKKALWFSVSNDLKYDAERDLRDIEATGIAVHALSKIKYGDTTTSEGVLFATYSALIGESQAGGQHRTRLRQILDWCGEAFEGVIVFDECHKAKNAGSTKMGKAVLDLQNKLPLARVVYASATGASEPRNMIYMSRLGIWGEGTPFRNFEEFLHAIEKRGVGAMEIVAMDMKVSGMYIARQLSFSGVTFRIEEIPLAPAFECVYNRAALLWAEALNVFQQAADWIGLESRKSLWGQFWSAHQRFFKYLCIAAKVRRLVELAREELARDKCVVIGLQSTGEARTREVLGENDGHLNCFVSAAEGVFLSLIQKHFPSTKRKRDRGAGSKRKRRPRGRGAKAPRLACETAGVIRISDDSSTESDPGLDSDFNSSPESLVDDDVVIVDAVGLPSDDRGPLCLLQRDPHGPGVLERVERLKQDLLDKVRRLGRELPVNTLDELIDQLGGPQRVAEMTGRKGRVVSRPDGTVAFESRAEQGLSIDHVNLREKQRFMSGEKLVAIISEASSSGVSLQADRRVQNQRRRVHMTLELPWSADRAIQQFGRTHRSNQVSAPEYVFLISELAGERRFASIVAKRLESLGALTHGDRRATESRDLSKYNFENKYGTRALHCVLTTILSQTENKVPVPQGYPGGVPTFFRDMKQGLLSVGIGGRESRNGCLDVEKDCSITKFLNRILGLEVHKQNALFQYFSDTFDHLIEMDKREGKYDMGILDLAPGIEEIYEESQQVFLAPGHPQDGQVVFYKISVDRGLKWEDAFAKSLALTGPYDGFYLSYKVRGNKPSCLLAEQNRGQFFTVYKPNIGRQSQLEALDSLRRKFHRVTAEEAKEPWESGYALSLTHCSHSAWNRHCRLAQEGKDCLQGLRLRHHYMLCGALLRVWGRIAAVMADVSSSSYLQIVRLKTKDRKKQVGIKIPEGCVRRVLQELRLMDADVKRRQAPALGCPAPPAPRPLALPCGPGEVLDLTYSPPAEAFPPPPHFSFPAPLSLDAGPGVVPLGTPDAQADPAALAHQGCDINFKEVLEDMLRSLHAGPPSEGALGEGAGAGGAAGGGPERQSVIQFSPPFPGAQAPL
Test: IP/MS, LZTR1 wild type-FLAG, U87
How it was run: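 Extracted peptides in 3% acetonitrile/0.1% formic acid ran on a 50 cm C18 column into an Orbitrap Fusion, with MaxQuant identification and spectral counting.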

binding result: binds
B1: LZTR1-FLAG (other, human, UniProt Q8N653 1-840, looked up)
chain: MAGPGSTGGQIGAAALAGGARSKVAPSVDFDHSCSDSVEYLTLNFGPFETVHRWRRLPPCDEFVGARRSKHTVVAYKDAIYVFGGDNGKTMLNDLLRFDVKDCSWCRAFTTGTPPAPRYHHSAVVYGSSMFVFGGYTGDIYSNSNLKNKNDLFEYKFATGQWTEWKIEGRLPVARSAHGATVYSDKLWIFAGYDGNARLNDMWTIGLQDRELTCWEEVAQSGEIPPSCCNFPVAVCRDKMFVFSGQSGAKITNNLFQFEFKDKTWTRIPTEHLLRGSPPPPQRRYGHTMVAFDRHLYVFGGAADNTLPNELHCYDVDFQTWEVVQPSSDSEVGGAEVPERACASEEVPTLTYEERVGFKKSRDVFGLDFGTTSAKQPTQPASELPSGRLFHAAAVISDAMYIFGGTVDNNIRSGEMYRFQFSCYPKCTLHEDYGRLWESRQFCDVEFVLGEKEECVQGHVAIVTARSRWLRRKITQARERLAQKLEQEAAPVPREAPGVAAGGARPPLLHVAIREAEARPFEVLMQFLYTDKIKYPRKGHVEDVLLIMDVYKLALSFQLCRLEQLCRQYIEASVDLQNVLVVCESAARLQLSQLKEHCLNFVVKESHFNQVIMMKEFERLSSPLIVEIVRRKQQPPPRTPLDQPVDIGTSLIQDMKAYLEGAGAEFCDITLLLDGHPRPAHKAILAARSSYFEAMFRSFMPEDGQVNISIGEMVPSRQAFESMLRYIYYGEVNMPPEDSLYLFAAPYYYGFYNNRLQAYCKQNLEMNVTVQNVLQILEAADKTQALDMKRHCLHIIVHQFTKVSKLPTLRSLSQQLLLDIIDSLASHISDKQCAELGADI
notes: Expressed in HEK 293T, HeLa or U87 cells; used as cell lysate; also called LZTR1 wild type-FLAG; LZTR1 WT; not shown: FLAG tag at the C-terminus
